{
  "source": "patent US20240317844A1",
  "target": "survivin (UniProt O15392)",
  "experiment": "method not stated",
  "data": [
    {"binder": "mAb 2C2E7 (antibody, V domains shown) VH: QIQLVQSGPELKKPGETVKISCKASGYTFTTYGMSWVKQAPGRGLKWMGWINPYSGVPTYAVDFKGRFAFSLETSASTAYLQINNLKNEDTATYFCARGGRRGDFGYWGQGTTLTVSS VL: QIGLTQSPAIMSASPGEKVTMTCSASSSISYMHWYQQKPGTSPKTWIYDTSKLASGVPARFSGSGSGTSYSLTISSMEAEDAATYYCHQRSSHHTFGGGTKLEIK", "values": [
      {"measurement": "Kd", "value": 0.56, "unit": "nM"}
    ]}
  ]
}
